According to the RNAGym collection of RNA variant scans (doi:10.1093/nar/gkz1192):

B1: CPEB3 Ribozyme (parent)
chain: UAACAGGGGGCCACAGCAGAAGCGUUCACGUCGCAGCCCCUGUCAGAUUCUGGUGAAUCUGCGAAUUCUGCUGUAUAUCUC

Variants of: B1
Test: self-cleavage, relative activity (ratio to wild type); higher = more cleavage; in vitro, sequencing
In short: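 CPEB3 self-cleaving ribozyme mutant libraries were made by rounds of error-prone PCR, barcoded, and transcribed in vitro with T7 RNA polymerase for 5 hours at 37°C. Cleavage occurred during transcription and a 15 min DNase I step before EDTA stop. RNAs were reverse transcribed with template switching and Illumina-sequenced, with DNA sequencing mapping barcodes to variants. Relative activity is the variant's cleaved/total read fraction divided by wild type's (minimum 5 reads), averaged across three batches.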
In the case of UAACAGGGGGCCACAGCAGAAGCGUUCACGUCGCAGCCCUUGUAAGAUUCUGGUGAAUCUGCGAAUUCUGCUGUAUAUCUC [C40U C44A], the self-cleavage is reported as 0.52. Work on UAACAGGGGGCCACAGCAGAAGCGUUCACGUCGCAGCCCGUGUCAGAUUCUGGUGAAUCAGCGAAUUCUGCUGUAUAUCUC [C40G U60A] yielded a self-cleavage of 0.11. Work on UAACAGGGGGCCACAGCAGAAGCGUUCACGUCGCAGCCCGUGUCAGAUUCUGGUGAAUCCGCGAAUUCUGCUGUAUAUCUC [C40G U60C] yielded a self-cleavage of 0.16. UAACAGGGGGCCACAGCAGAAGCGUUCACGUCGCAGCCCUUGUCAGAUUCUGGUGAAUUUGCGAAUUCUGCUGUAUAUCUC [C40U C59U] showed a self-cleavage of 0.28. For UAACAGGGGGCCACAGCAGAAGCGUUCACGUCGCAGCCCUUGUCAGAUUCUGGUGGAUCUGCGAAUUCUGCUGUAUAUCUC [C40U A56G], the self-cleavage was 0.48. In the case of UAACAGGGGGCCACAGCAGAAGCGUUCACGUCGCAGCCCUUGUCAGAUUCUGGUGUAUCUGCGAAUUCUGCUGUAUAUCUC [C40U A56U], the self-cleavage is reported as 0.32. In the case of UAACAGGGGGCCACAGCAGAAGCGUUCACGUCGCAGCCCUUGUCAGAUUCUGGUGCAUCUGCGAAUUCUGCUGUAUAUCUC [C40U A56C], the self-cleavage is reported as 0.32. Variant UAACAGGGGGCCACAGCAGAAGCGUUCACGUCGCAGCCCUUGUCAGAUUCUGGUGAAUCUGCGAGUUCUGCUGUAUAUCUC [C40U A65G] has a self-cleavage of 0.27. UAACAGGGGGCCACAGCAGAAGCGUUCACGUCGCAGCCCUUGUCAGAUUCUGGUGAAUCUGCGAUUUCUGCUGUAUAUCUC [C40U A65U] gave a self-cleavage of 0.37. In the case of UAACAGGGGGCCACAGCAGAAGCGUUCACGUCGCAGCCCUUGUCAGAUUCUGGGGAAUCUGCGAAUUCUGCUGUAUAUCUC [C40U U54G], the self-cleavage is reported as 0.6. In the case of UAACAGGGGGCCACAGCAGAAGCGUUCACGUCGCAGCCCUUGUCAGAUUCUGGCGAAUCUGCGAAUUCUGCUGUAUAUCUC [C40U U54C], the self-cleavage is reported as 0.7. With UAACAGGGGGCCACAGCAGAAGCGUUCACGUCGCAGCCCUUGUCAGAUUCUGGAGAAUCUGCGAAUUCUGCUGUAUAUCUC [C40U U54A] the self-cleavage was 1.08. For UAACAGGGGGCCACAGCAGAAGCGUUCACGUCGCAGCCCUUGUCAGAUUCCGGUGAAUCUGCGAAUUCUGCUGUAUAUCUC [C40U U51C], the self-cleavage was 0.65. In the case of UAACAGGGGGCCACAGCAGAAGCGUUCACGUCGCAGCCCUUGUCAGAUUCGGGUGAAUCUGCGAAUUCUGCUGUAUAUCUC [C40U U51G], the self-cleavage is reported as 0.49. With UAACAGGGGGCCACAGCAGAAGCGUUCACGUCGCAGCCCUUGUCAGAUUCAGGUGAAUCUGCGAAUUCUGCUGUAUAUCUC [C40U U51A] the self-cleavage was 0.84. UAACAGGGGGCCACAGCAGAAGCGUUCACGUCGCAGCCCUUGUCAGAUUCUGGUGAAUCUGCGAAUUCUGCUGUAUAUCUC [C40U] gave a self-cleavage of 0.76. Work on UAACAGGGGGCCACAGCAGAAGCGUUCACGUCGCAGCCCUUGUCAGAUUCUGGUGAAUCUGCGAAAUCUGCUGUAUAUCUC [C40U U66A] yielded a self-cleavage of 0.23. In the case of UAACAGGGGGCCACAGCAGAAGCGUUCACGUCGCAGCCCUUGUCAGAUUCUGGUGAAUCUGCGAACUCUGCUGUAUAUCUC [C40U U66C], the self-cleavage is reported as 0.33. Variant UAACAGGGGGCCACAGCAGAAGCGUUCACGUCGCAGCCCUUGUCAGAUUCUGGUGAAUCUGCGAAUUCUGCUCUAUAUCUC [C40U G73C] has a self-cleavage of 1.22. In the case of UAACAGGGGGCCACAGCAGAAGCGUUCACGUCGCAGCCCUUGUCAGAUUCUGGUGAAUCAGCGAAUUCUGCUGUAUAUCUC [C40U U60A], the self-cleavage is reported as 0.34. In the case of UAACAGGGGGCCACAGCAGAAGCGUUCACGUCGCAGCCCUUGUCAGAUUCUGGUGAAUCCGCGAAUUCUGCUGUAUAUCUC [C40U U60C], the self-cleavage is reported as 0.3. UAACAGGGGGCCACAGCAGAAGCGUUCACGUCGCAGCCCUUGUCAGAUUCUGGUGAAUCGGCGAAUUCUGCUGUAUAUCUC [C40U U60G] gave a self-cleavage of 0. UAACAGGGGGCCACAGCAGAAGCGUUCACGUCGCAGCCCGUGUCAGAUUCUGGUGAAUCUGCGAAUUCUGCUGUAUACCUC [C40G U78C] showed a self-cleavage of 0.38. Variant UAACAGGGGGCCACAGCAGAAGCGUUCACGUCGCAGCCCUUGUCAGAUUCUGGUUAAUCUGCGAAUUCUGCUGUAUAUCUC [C40U G55U] has a self-cleavage of 0.49. UAACAGGGGGCCACAGCAGAAGCGUUCACGUCGCAGCCCUUGUCAGAUUCUGGUAAAUCUGCGAAUUCUGCUGUAUAUCUC [C40U G55A] showed a self-cleavage of 0.67. UAACAGGGGGCCACAGCAGAAGCGUUCACGUCGCAGCCCUUGUCAGAUUCUGGUGAAUCUGCGAAUCCUGCUGUAUAUCUC [C40U U67C] showed a self-cleavage of 0.23. Variant UAACAGGGGGCCACAGCAGAAGCGUUCACGUCGCAGCCCUUGUCGGAUUCUGGUGAAUCUGCGAAUUCUGCUGUAUAUCUC [C40U A45G] has a self-cleavage of 0.55. For UAACAGGGGGCCACAGCAGAAGCGUUCACGUCGCAGCCCUUGUCUGAUUCUGGUGAAUCUGCGAAUUCUGCUGUAUAUCUC [C40U A45U], the self-cleavage was 0.15. Variant UAACAGGGGGCCACAGCAGAAGCGUUCACGUCGCAGCCCUUGUCCGAUUCUGGUGAAUCUGCGAAUUCUGCUGUAUAUCUC [C40U A45C] has a self-cleavage of 0.17. In the case of UAACAGGGGGCCACAGCAGAAGCGUUCACGUCGCAGCCCUUGUCAGAUUCUGGUGAAUCUGCGAAUUCUGAUGUAUAUCUC [C40U C71A], the self-cleavage is reported as 0.17. In the case of UAACAGGGGGCCACAGCAGAAGCGUUCACGUCGCAGCCCUUGUCAGAUUCUGGUGAUUCUGCGAAUUCUGCUGUAUAUCUC [C40U A57U], the self-cleavage is reported as 0.61. With UAACAGGGGGCCACAGCAGAAGCGUUCACGUCGCAGCCCUUGUCAGAUUCUGGUGACUCUGCGAAUUCUGCUGUAUAUCUC [C40U A57C] the self-cleavage was 0.46. Work on UAACAGGGGGCCACAGCAGAAGCGUUCACGUCGCAGCCCUUGUCAGAUUCUGGUGAGUCUGCGAAUUCUGCUGUAUAUCUC [C40U A57G] yielded a self-cleavage of 0.36. Variant UAACAGGGGGCCACAGCAGAAGCGUUCACGUCGCAGCCCUUGUCAGACUCUGGUGAAUCUGCGAAUUCUGCUGUAUAUCUC [C40U U48C] has a self-cleavage of 0.25.
